US20200040084A1
Each block holds one substance with its values, some of them ahead of it.

What was measured:
[1] = biological target: FcγRIIa (secondary ADCP assay, M2c macrophage effector cells) (UniProt P12318); experiment: cell-based or functional assay
[2] = biological target: FcγRIIIa on Jurkat effector cells (UniProt P08637); experiment: cell-based or functional assay
[3] = biological target: human FcγRIIa-H variant (Histidine at amino acid 131) on Jurkat effector cells (human) (UniProt P12318); experiment: cell-based or functional assay
Sequence of human FcγRIIa-H variant (Histidine at amino acid 131) on Jurkat effector cells (human) (P12318 34-317, change not shown): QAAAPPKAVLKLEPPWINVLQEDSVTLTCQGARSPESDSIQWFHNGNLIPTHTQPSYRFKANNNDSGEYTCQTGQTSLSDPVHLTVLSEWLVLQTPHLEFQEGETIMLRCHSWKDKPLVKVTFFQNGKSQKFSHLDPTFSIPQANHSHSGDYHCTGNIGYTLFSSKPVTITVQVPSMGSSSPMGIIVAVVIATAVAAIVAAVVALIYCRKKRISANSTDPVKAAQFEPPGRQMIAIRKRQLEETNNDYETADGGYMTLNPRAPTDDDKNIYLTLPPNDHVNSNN

[4] = biological target: FcγRIIIa (secondary ADCC assays, NK effector cells) (UniProt P08637); experiment: cell-based or functional assay
[5] = biological target: FcγRIIa (UniProt P12318); experiment: SPR, FcγRIIa binding
Sequence of FcγRIIa (P12318 34-217 limits assumed): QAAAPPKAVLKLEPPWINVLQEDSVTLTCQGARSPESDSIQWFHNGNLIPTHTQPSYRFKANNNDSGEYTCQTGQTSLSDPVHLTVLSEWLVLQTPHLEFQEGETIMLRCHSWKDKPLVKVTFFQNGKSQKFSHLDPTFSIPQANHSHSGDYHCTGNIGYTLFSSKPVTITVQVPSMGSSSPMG

Sequence of fucosylated anti-PD-L1 IgG1 antibody (avelumab) (HC): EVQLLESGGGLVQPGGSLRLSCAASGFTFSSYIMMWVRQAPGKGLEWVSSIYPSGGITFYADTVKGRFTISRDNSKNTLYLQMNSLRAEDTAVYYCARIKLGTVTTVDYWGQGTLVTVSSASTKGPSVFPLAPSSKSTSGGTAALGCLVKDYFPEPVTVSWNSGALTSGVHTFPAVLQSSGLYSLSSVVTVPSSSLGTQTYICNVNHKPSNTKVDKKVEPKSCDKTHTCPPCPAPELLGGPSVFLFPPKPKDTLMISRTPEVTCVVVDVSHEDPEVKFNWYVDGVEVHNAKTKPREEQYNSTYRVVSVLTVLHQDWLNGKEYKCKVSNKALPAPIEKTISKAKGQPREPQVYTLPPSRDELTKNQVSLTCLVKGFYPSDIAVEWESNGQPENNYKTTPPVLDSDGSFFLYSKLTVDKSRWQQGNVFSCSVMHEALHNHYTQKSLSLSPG
Sequence of fucosylated anti-PD-L1 IgG1 antibody (avelumab) (LC): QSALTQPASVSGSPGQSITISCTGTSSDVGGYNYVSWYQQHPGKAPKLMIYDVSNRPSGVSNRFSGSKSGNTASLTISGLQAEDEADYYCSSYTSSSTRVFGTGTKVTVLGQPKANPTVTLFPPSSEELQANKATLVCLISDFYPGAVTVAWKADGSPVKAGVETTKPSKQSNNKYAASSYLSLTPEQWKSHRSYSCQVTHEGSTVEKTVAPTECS
Sequence of afucosylated anti-PD-L1 IgG1 antibody (avelumab) (HC): as the sequence (HC) above
Sequence of afucosylated anti-PD-L1 IgG1 antibody (avelumab) (LC): as the sequence (LC) above

EC50 mean, ADCP in KILR Raji cells (M2c macrophages) [1]: 0.37 nM
Substance: afucosylated anti-CD20 IgG1 antibody (obinutuzumab)

EC50 mean, FcγRIIIa signaling in ADCC reporter assay (HEK-PD-L1 targets) [2]: 0.049 nM
Substance: fucosylated anti-PD-L1 IgG1 antibody (avelumab)

EC50 mean, ADCC in KILR-A549 cells (NK cells) [4]: 0.0054 nM
Substance: afucosylated anti-PD-L1 IgG1 antibody (avelumab)

Second part, the substance before the results:

Substance: fucosylated anti-CD20 IgG1 antibody (obinutuzumab)
EC50 mean, FcγRIIIa signaling in ADCC reporter assay (Raji targets) [2]: 7.1 nM
EC50 mean, FcγRIIa signaling in ADCP reporter assay (Raji targets) [3]: 7.1 nM
EC50 mean, ADCP in KILR Raji cells (M2c macrophages) [1]: 0.82 nM
EC50 mean, ADCC in KILR Raji cells (NK cells) [4]: 0.033 nM

Substance: afucosylated version of Ipilimumab (antibody)
fold enhancement of binding by afucosylation [5]: 10 fold
